Columns and labels:
[1] = substrate: CC=O; assay: aldol condensation, 3-HPA quantified by HPLC after O-benzylhydroxylamine derivatisation, Michaelis-Menten fit; type: biochemical, Thermotoga maritima; details: co-substrate formaldehyde, 20 mM Kpi pH 7.0, 40 °C
[2] = substrate: C=O; assay: as above; type: biochemical, Thermotoga maritima; details: co-substrate acetaldehyde, 20 mM Kpi pH 7.0, 40 °C

B1: DERATma (Thermotoga maritima MSB8) (protein)
chain: MIEYRIEEAVAKYREFYEFKPVRESAGIEDVKSAIEHTNLKPFATPDDIKKLCLEARENRFHGVCVNPCYVKLAREELEGTDVKVVTVVGFPLGANETRTKAHEAIFAVESGADEIDMVINVGMLKAKEWEYVYEDIRSVVESVKGKVVKVIIETCYLDTEEKIAACVISKLAGAHFVKTSTGFGTGGATAEDVHLMKWIVGDEMGVKASGGIRTFEDAVKMIMYGADRIGTSSGVKIVQGGEERYGG
In the case of B1, the Km [1] is reported as 6.95 mM, the kcat [1] is reported as 0.0085 s⁻¹ and the Km [2] is reported as 2.41 mM. For the same protein, the kcat [2] was 0.00817 s⁻¹.

From paper PMC8999356, “In Vitro One-Pot 3-Hydroxypropanal Production from Cheap C1 and C2 Compounds” (International Journal of Molecular Sciences, 2022)
